The source of these data is the supplement of paper PMC9170038.

In this data set the test system is MS2 coat protein. The data set is described as follows: apparent KD of MS2 coat protein; designed switch direction (-1 OFF switch, 1 ON switch): -1; higher = weaker reporter binding. Put shortly: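 Each step of the titration lasted 0.8–1.5 h at the lowest concentration and 10–20 min at the highest. The protein, SNAP-549-labelled MS2 coat protein, went from 0.7 or 1.5 nM doubling to 3 µM over RNA switches transcribed on Illumina chips by stalled E. coli RNA polymerase. Normalised cluster fluorescence was curve-fitted, and the per-design median over clusters is given as apparent KD.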

Setting [1] is: Eterna round: R95, input ligand: microRNA oligo, concentration not stated.
The mark [2] stands for this setting: input ligand: microRNA oligo, concentration not stated.
Setting [3] is: Eterna round: R95, input ligand: FMN 200 uM.
Where [4] appears, read: Eterna round: R95, input ligand: none.

“AGAUCACAUGAGGAUCACCCAUGUCAGGAUAUCGUCACUGGAGCUUCGGCUCCAGUGACGAGAAGGGACAAUUA [E1/1-A3] (Eterna round: R97, puzzle: Exclusion 1)”: the “apparent KD of MS2 coat protein” value stood at 304 nM (input ligand: FMN 200 uM) and 161 nM (input ligand: none).

In the case of “AGAUCCUGAGUCAGGAUAUAGAGGCGAAAGCCUGGCUAGAAGGGACAUGAGGAUCACCCAUGUGGGUUCGUGCC [Geariat] (puzzle: Brourd's mod of Exclusion 4)”, the “apparent KD of MS2 coat protein” value under setting [1] was 19.6 nM.

As for “AGAUGCUCAAGUCGACAUGAGGAUCACCCAUGUACAGUUAAUGAGGAUAUCUGAGACAAAUAGUAGGAGAAGGCGUGAACAUGA [Ex NG3 #10] (Eterna round: R96, puzzle: Exclusion NG 3)”, the “apparent KD of MS2 coat protein” value by setting is: (input ligand: FMN 200 uM) 55.2 nM; under setting [2], 26.5 nM; (input ligand: none) 57.6 nM.

In the case of “AGAUGUAGAAACCGAUCCUACAUGAGGAUCACCCAUGUAGCAAGACGUGCACGCGAAGCUCGUCAGACUACCAGAAG [salish99_TOv1_r3_082] (puzzle: Sensor v3, turn-off variant 1)”, the “apparent KD of MS2 coat protein” value under setting [3] was 270 nM, the “apparent KD of MS2 coat protein” value under setting [1] was 188 nM and the “apparent KD of MS2 coat protein” value under setting [4] turned out to be 352 nM.

“AGAUGUAGAUACCGGUCCUACAUGAGGAUCACCCAUGUAGCUUGACGUGCGGGCGGCGCUCGUCGGUCUACCAGUAG [salish99_TOv1_r3_100] (puzzle: Sensor v3, turn-off variant 1)”: the “apparent KD of MS2 coat protein” value was 27.3 nM under setting [3], 28.6 nM under setting [1] and 36.2 nM under setting [4].

For “AGAUUACGUUAGGAUAUCCGGCCUGACGAGGAUGGAGAAGGAGCGACAUGAGGAUCACCCAUGUGUGGCACUCC [Eternabot (L1) Solution 76] (Eterna round: R97, puzzle: Exclusion 6)”, the “apparent KD of MS2 coat protein” value is 17.7 nM (input ligand: FMN 200 uM) and 18.3 nM (input ligand: none).

For the sequence “AGCAGCCAAUCAGGAUAUACUUUCAGGUGAAGCGUCGCGGGCGAUAACAUGAGGAUCACCCAUGUGUAGAAGGGAUGCGCAAAC [Eternabot solution 39] (Eterna round: R96, puzzle: Exclusion NG 2)”, the “apparent KD of MS2 coat protein” value was found to be 45.8 nM (input ligand: FMN 200 uM), 30.3 nM under setting [2] and 41.2 nM (input ligand: none).

With “AGCAUGCAGUAGGAUAUCGAUCCGCAAUAUGAACGAGAAGGGCUGACAUGAGGAUCACCCAUGUGCGUCCUAGG [jl-ex6-4.40 ViennaUCT mod] (Eterna round: R97, puzzle: Exclusion 6)”, the “apparent KD of MS2 coat protein” value turned out to be 19.4 nM (input ligand: FMN 200 uM) and 20.2 nM (input ligand: none).

Regarding “AGCCAUACAGGAUAUGCCCGGGAUAACAUGAGGAUCACCCAUGUGACCGAUUCAUGUCCUGCAGAAGGGUAUGGGA [Mod of ViennaUCT 3 - Jieux - Exclusion 5] (Eterna round: R97, puzzle: Exclusion 5)”, the “apparent KD of MS2 coat protein” value is, setting by setting: (input ligand: FMN 200 uM) 31.7 nM; (input ligand: none) 16.8 nM.

Turning to “AGCGAGGCAGGAUAUACAUGAGGAUCACCCAUGUACUUGUAUGGCGUGGAACAUCGUGGUAGAAGGGCCGCGCC [EX3 #79] (Eterna round: R97, puzzle: Exclusion 3)”, the “apparent KD of MS2 coat protein” value (input ligand: FMN 200 uM) came to 33.5 nM and the “apparent KD of MS2 coat protein” value (input ligand: none) was determined as 23.7 nM.

Turning to “AGCGGAGAUGUCAGGAUAUCUCGCUCGGUGGGUUGAGAGAAGGGACAUGAGGAUCACCCAUGUCUGCAAUUGUC [Eternabot (Original) Solution 46] (Eterna round: R97, puzzle: Brourd's mod of Exclusion 4)”, the “apparent KD of MS2 coat protein” value is, setting by setting: (input ligand: FMN 200 uM) 19.9 nM; (input ligand: none) 17.9 nM.

Turning to “AGCGUGGCUCAGGAUAUCAGCCCUGUGGAGUUCUGAGAAGGGAGCACAUGAGGAUCACCCAUGUGAAAGGGUAC [Useratarin] (puzzle: Exclusion 6)”, the “apparent KD of MS2 coat protein” value under setting [3] came to 103 nM, the “apparent KD of MS2 coat protein” value under setting [1] was 24.7 nM and the “apparent KD of MS2 coat protein” value under setting [4] is 29.7 nM.

Turning to “AGCUAGUCAGGAUAUACGCAAACGAACGAAGCAGUGAAGGGACAUGAGGAUCACCCAUGUAGAAGGGACUAGCA [Diamond 30] (Eterna round: R96, puzzle: Exclusion 2)”, the “apparent KD of MS2 coat protein” value is, setting by setting: (input ligand: FMN 200 uM) 121 nM; under setting [2], 17.4 nM; (input ligand: none) 24.9 nM.

As for “AGCUGUGGCCGAGGAUAUCACAUGAGGAUCACCCAUGUACAUGAUUAGGCCUGGUAACAGGCUCAUGAGAAGGCGGUCUCAGCA [Eli eng2 - 013] (Eterna round: R96, puzzle: Exclusion NG 2)”, the “apparent KD of MS2 coat protein” value is 16.1 nM (input ligand: FMN 200 uM), 16.4 nM under setting [2] and 22.4 nM (input ligand: none).

On to “AGCUGUGGCCGAGGAUAUCACGAACCAUGGAAAACCAUGGAACUCAUACAUGAGGAUCACCCAUGUGAGAAGGCGGUCUCAGCA [Eli eng2 - 019] (Eterna round: R96, puzzle: Exclusion NG 2)”, for which, under setting [2], the “apparent KD of MS2 coat protein” value came out at 27 nM.

“AGCUGUGGCCGAGGAUAUCCAACUUCAAAUACCGACGUAUAGUCGGACAUGAGGAUCACCCAUGUGGAGAAGGCGGUCUCAGCA [Eli eng2 - 038] (Eterna round: R96, puzzle: Exclusion NG 2)”: the “apparent KD of MS2 coat protein” value reads like this: (input ligand: FMN 200 uM) 24.2 nM; under setting [2], 12.5 nM; (input ligand: none) 15.6 nM.

Consider “AGCUGUGGCCGAGGAUAUCCACAUGAGGAUCACCCAUGUGAAUACCCAAUUAAGGGAUAACCGUGGGAGAAGGCGGUCUCAGCA [Eli eng2 - 048] (Eterna round: R96, puzzle: Exclusion NG 2)”, for which the “apparent KD of MS2 coat protein” value amounted to 80.9 nM (input ligand: FMN 200 uM), 112 nM under setting [2] and 167 nM (input ligand: none).

Regarding “AGCUGUGGCCGAGGAUAUCCAGCCUUAAAUACCGACGUAUAGUCGGACAUGAGGAUCACCCAUGUGGAGAAGGCGGUCUCAGCA [Eli eng2 - 045] (Eterna round: R96, puzzle: Exclusion NG 2)”, the “apparent KD of MS2 coat protein” value (input ligand: FMN 200 uM) came to 126 nM, the “apparent KD of MS2 coat protein” value under setting [2] stood at 36.4 nM and the “apparent KD of MS2 coat protein” value (input ligand: none) amounted to 43.6 nM.

Consider “AGCUGUGGCCGAGGAUAUCUAAACCUCAAAACCGAGGUAUACUCGGACAUGAGGAUCACCCAUGUAGAGAAGGCGGUCUCAGCA [Eli eng2 - 036] (Eterna round: R96, puzzle: Exclusion NG 2)”, for which the “apparent KD of MS2 coat protein” value was 107 nM (input ligand: FMN 200 uM), 190 nM under setting [2] and 443 nM (input ligand: none).

For the sequence “AGCUGUGGCCGAGGAUAUCUAAUAACUCAAACCGAAAUAUAAUCGGACAUGAGGAUCACCCAUGUAGAGAAGGCGGUCUCAGCA [Eli eng2 - 063] (Eterna round: R96, puzzle: Exclusion NG 2)”, under setting [2], the “apparent KD of MS2 coat protein” value turned out to be 69.8 nM.

On to “AGCUGUGGCCGAGGAUAUCUGUUCCAAAUAACCGACGUAUAGUCGGACAUGAGGAUCACCCAUGUAGAGAAGGCGGUCUCAGCA [Eli eng2 - 101] (Eterna round: R96, puzzle: Exclusion NG 2)”, for which the “apparent KD of MS2 coat protein” value is, setting by setting: (input ligand: FMN 200 uM) 136 nM; under setting [2], 38 nM; (input ligand: none) 63.9 nM.

“AGCUUUGGAGGAUAUUGAGCGGAAAACAUGAGGAUCACCCAUGUAAGUGGGCGAAAUGUAUAAGAAGGCCGAAGGU [Eternabot (L2) Solution 15] (Eterna round: R97, puzzle: Exclusion 5)”: the “apparent KD of MS2 coat protein” value (input ligand: FMN 200 uM) was found to be 205 nM and the “apparent KD of MS2 coat protein” value (input ligand: none) amounted to 278 nM.

Turning to “AGCUUUUUGCUCGUCUUAUACAUGAGGAUCACCCAUGUAUUGGACCACAUCGAUAGAUGUGGACCAAGAAGCAUGGG [Omdei Mir OFFv1 C1] (Eterna round: R97, puzzle: Sensor, turn-off variant 1)”, the “apparent KD of MS2 coat protein” value by setting is: (input ligand: FMN 200 uM) 195 nM; (input ligand: none) 109 nM.

On to “AGGAAGCAAGGAUAUACGAGGAGAAGGUGUCCAUCUAAAUGACAUGAGGAUCACCCAUGUAGAAGGUGCGAGAA [JR_Exclu2_Sub050] (puzzle: Exclusion 2)”, for which the “apparent KD of MS2 coat protein” value under setting [3] came out at 112 nM, the “apparent KD of MS2 coat protein” value under setting [1] came out at 47.4 nM and the “apparent KD of MS2 coat protein” value under setting [4] was 34.5 nM.

In the case of “AGGGAGCGAGGAUAUACAGAGUAGGAAACUACUCCCUCAGUACAUGAGGAUCACCCAUGUAGAAGGCGCCCGAA [EX2 A.1] (Eterna round: R97, puzzle: Exclusion 2)”, the “apparent KD of MS2 coat protein” value reads like this: (input ligand: FMN 200 uM) 38 nM; (input ligand: none) 23.8 nM.

With “AGGGUGGGAGGAUAUCCAAUAUAUGACAUGAGGAUCACCCAUGUUUCCACUCGUACCUCCGGAGAAGGCCCUCCCA [Ex5 #22] (Eterna round: R97, puzzle: Exclusion 5)”, the “apparent KD of MS2 coat protein” value reads like this: (input ligand: FMN 200 uM) 21.5 nM; (input ligand: none) 22.1 nM.

Regarding “AGGGUUUGAGGAUAUAUCUGGUGGGACAUGAGGAUCACCCAUGUUCAUGUCGUAUCCUCAGUAGAAGGCAGACAGG [Eternabot (Original) Solution 14] (Eterna round: R97, puzzle: Exclusion 5)”, the “apparent KD of MS2 coat protein” value came to 13.2 nM (input ligand: FMN 200 uM) and 13.4 nM (input ligand: none).

As for “AGGUCACAUGAGGAUCACCCAUGUGAGGAUAUAGACUCAAGAGCUUCGGCUCUCAAGUUUAGAAGGCGCUAUGA [EX1 #51] (Eterna round: R97, puzzle: Exclusion 1)”, the “apparent KD of MS2 coat protein” value is, setting by setting: (input ligand: FMN 200 uM) 25.8 nM; (input ligand: none) 26.3 nM.

Take “AGUAACAGAGGAUAUACUAUUUUAUGUGUUUGUUAUUUUAAACAUGAGGAUCACCCAUGUAGAAGGCUGAAUGA [JMF 100] (puzzle: Exclusion 2)”: under setting [1], the “apparent KD of MS2 coat protein” value came to 23.5 nM.

“AGUAACAGAGGAUAUACUGUUUUAUGUGUUUAUUGUUUUGAACAUGAGGAUCACCCAUGUAGAAGGCUGAAUAA [JMF 94] (puzzle: Exclusion 2)”: the “apparent KD of MS2 coat protein” value under setting [1] worked out at 21.7 nM.

For the sequence “AGUAACCGUCACGAAAGUGAUGGUUACACAAGAAAUGAAACAUGAGGAUCACCCAUGUCCUCAUUUGCUCGUCUUAU [Sensor 3 - 38] (puzzle: Sensor v3, turn-off variant 2)”, the “apparent KD of MS2 coat protein” value came out at 176 nM under setting [3], 288 nM under setting [1] and 259 nM under setting [4].
